Laboratory results: PMC9122904, “Insights into the client protein release mechanism of the ATP-independent chaperone Spy” (Nature Communications, 2022)
Numbering of substitutions follows the chain as printed. Names may count otherwise.

Key:
Experiment in all cases: BLI; Octet RED96; client biotinylated and loaded on streptavidin sensors; Spy or Spy variant in solution at 0.25, 0.5, 1, 1.5 and 2 μM; 40 mM HEPES, 150 mM NaCl, pH 7.5; Kd calculated as koff/kon
Conditions in all cases: both partners purified
[1] = biological target: T1, Spy_(29-124) R61D R62D (UniProt P77754 52-147, R61D | R62D)
T1 construct: source: E. coli BL21 (DE3), purified (Ni-NTA, cation exchange, SEC); not shown: His6, N-terminal, cleaved; SUMO, N-terminal, cleaved
T1 sequence (looked up): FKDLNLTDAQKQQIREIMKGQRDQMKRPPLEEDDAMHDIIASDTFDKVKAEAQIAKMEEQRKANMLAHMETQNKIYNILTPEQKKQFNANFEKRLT

[2] = biological target: T2, Spy_(29-124) R43D (UniProt P77754 52-147, R43D)
T2 construct: source: E. coli BL21 (DE3), purified (Ni-NTA, cation exchange, SEC); not shown: His6, N-terminal, cleaved; SUMO, N-terminal, cleaved
T2 sequence (looked up): T1 sequence (looked up) with R15D, D33R, D34R

[3] = biological target: T3, Spy_(29-124) H96D (UniProt P77754 52-147, H96D)
T3 construct: source: E. coli BL21 (DE3), purified (Ni-NTA, cation exchange, SEC); not shown: His6, N-terminal, cleaved; SUMO, N-terminal, cleaved
T3 sequence (looked up): T1 sequence (looked up) with D33R, D34R, H68D

[4] = biological target: T4, Spy_(29-124) R50D (UniProt P77754 52-147, R50D)
T4 construct: source: E. coli BL21 (DE3), purified (Ni-NTA, cation exchange, SEC); not shown: His6, N-terminal, cleaved; SUMO, N-terminal, cleaved
T4 sequence (looked up): T1 sequence (looked up) with R22D, D33R, D34R

[5] = biological target: T5, Spy_(29-124) K121D R122D (UniProt P77754 52-147, K121D | R122D)
T5 construct: source: E. coli BL21 (DE3), purified (Ni-NTA, cation exchange, SEC); not shown: His6, N-terminal, cleaved; SUMO, N-terminal, cleaved
T5 sequence (looked up): T1 sequence (looked up) with D33R, D34R, K93D, R94D

[6] = biological target: T6, Spy_(29-124) K75D (UniProt P77754 52-147, K75D)
T6 construct: source: E. coli BL21 (DE3), purified (Ni-NTA, cation exchange, SEC); not shown: His6, N-terminal, cleaved; SUMO, N-terminal, cleaved
T6 sequence (looked up): T1 sequence (looked up) with D33R, D34R, K47D

[7] = biological target: T7, Spy_(29-124) R89D (UniProt P77754 52-147, R89D)
T7 construct: source: E. coli BL21 (DE3), purified (Ni-NTA, cation exchange, SEC); not shown: His6, N-terminal, cleaved; SUMO, N-terminal, cleaved
T7 sequence (looked up): T1 sequence (looked up) with D33R, D34R, R61D

[8] = biological target: T8, Spy_(29-124) K54D R55D (UniProt P77754 52-147, K54D | R55D)
T8 construct: source: E. coli BL21 (DE3), purified (Ni-NTA, cation exchange, SEC); not shown: His6, N-terminal, cleaved; SUMO, N-terminal, cleaved
T8 sequence (looked up): T1 sequence (looked up) with K26D, R27D, D33R, D34R

[9] = biological target: T9, Spy D26A (UniProt P77754 24-161, D26A)
T9 construct: source: E. coli BL21 (DE3), purified (Ni-NTA, cation exchange, SEC); not shown: His6, N-terminal, cleaved; SUMO, N-terminal, cleaved
T9 sequence (looked up): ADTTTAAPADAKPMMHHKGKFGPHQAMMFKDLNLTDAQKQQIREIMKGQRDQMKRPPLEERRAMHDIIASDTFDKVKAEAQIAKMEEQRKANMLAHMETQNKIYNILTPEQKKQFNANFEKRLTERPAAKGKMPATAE

[10] = biological target: T10, Spy D26K (UniProt P77754 24-161, D26K)
T10 construct: source: E. coli BL21 (DE3), purified (Ni-NTA, cation exchange, SEC); not shown: His6, N-terminal, cleaved; SUMO, N-terminal, cleaved
T10 sequence (looked up): T9 sequence (looked up) with A26K

Kd [1]: 3.54 µM
Kd [2]: 3.07 µM
Kd [3]: 1260 nM
Kd [4]: 2680 nM
Kd [5]: 1850 nM
Kd [6]: 456 nM
Kd [7]: 2610 nM
Kd [8]: 1900 nM
koff [9]: 0.0876 s⁻¹
koff [10]: 0.0775 s⁻¹
B1: Im7 H40W L53A I54A (natural protein)
chain: MELKNSISDYTEAEFVQLLKEIEKENVAATDDVLDVLLEWFVKITEHPDGTDAAYYPSDNRDDSPEGIVKEIKEWRAANGKPGFKQG
modifications: biotin (EZ-link NHS-biotin, 1:1 molar ratio of biotin to protein)
notes: Im7 (colicin E7 immunity protein) with H40W L53A I54A; Spy was made with an N-terminal His6-SUMO tag that was cleaved; also called Im7AAW; partially folded client; source: purified by a similar procedure to Spy
